Assay in all cases: EMSA
The target in series [1] is T1, SUMO-TDP-43 RRM1,2 (human, UniProt Q13148 102-269).
In series [2] the target is T1, SUMO-TDP-43 RRM1,2. This is another data set of the same source.
The target in series [3] is T1, SUMO-TDP-43 RRM1,2. This is another data set of the same source.
Series [4] addresses T1, SUMO-TDP-43 RRM1,2. This is another data set of the same source.

Read-outs that look alike come from different tables or passages of the source.

T1 sequence (Q13148 102-269): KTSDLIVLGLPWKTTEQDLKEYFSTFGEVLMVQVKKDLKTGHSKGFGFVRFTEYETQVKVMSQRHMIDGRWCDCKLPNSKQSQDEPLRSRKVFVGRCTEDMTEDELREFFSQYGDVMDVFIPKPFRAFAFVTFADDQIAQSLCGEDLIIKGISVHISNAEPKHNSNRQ

B1: (GU)6 (ssRNA)
RNA: GUGUGUGUGUGU
modifications: see Table S1 (not in material)
As to B1, the binding result in series [1] was “binds”.

B2: ('AUG12')2 (ssRNA)
RNA: GUGUGAAUGAAUGUGUGAAUGAAU
modifications: 2'-O-methyl and phosphorothioate; positions in Table S1 (not in material)
For the molecule B2, the binding result in series [2] was “binds”.

B3: (GU)16 (ssRNA)
RNA: GUGUGUGUGUGUGUGUGUGUGUGUGUGUGUGU
modifications: 2'-O-methyl and phosphorothioate; positions in Table S1 (not in material)
With B3, in series [3], the binding result was “binds”.

B4: A32 (ssRNA)
RNA: AAAAAAAAAAAAAAAAAAAAAAAAAAAAAAAA
modifications: see Table S1 (not in material)
As for B4, the binding result in series [4] is “no binding”.

B5: (CA)16 (ssRNA)
RNA: CACACACACACACACACACACACACACACACA
modifications: see Table S1 (not in material)
As for B5, in series [4], the binding result is “no binding”.

The values above are taken from PMC11233918.
